Source: publication PMC3541234, “Functional Characterization of a Chimeric Soluble Fas Ligand Polymer with In Vivo Anti-Tumor Activity” (PLoS ONE, 2013)
Several values for one entry are separate records, joined by “and”; a condition that tells them apart may be missing. Equal values may be shown once.

B1: Recombinant Fas-Fc (Fc fusion, UniProt P25445 26-173, looked up)
chain: QVTDINSKGLELRKTVTTVETQNLEGLHHDGQFCHKPCPPGERKARDCTVNGDEPDCVPCQEGKEYTDKAHFSSKCRRCRLCDEGHGLEVEINCTRTQNTKCRCKPNFFCNSTVCEHCDPCTKCEHGIIKECTLTSNTKCKEEGSRSN
notes: Fas (CD95/APO-1) part of a bought recombinant Fas-Fc; The reagents section also names a laboratory-made Fas-Fc purified on protein A; the SPR methods name the R&D Systems protein; source: bought: R&D Systems
B2: pFasL (polymeric soluble FasL; IgFasL chimera: Ig module of gp190 fused to the extracellular domain of hFasL) (ligand, UniProt P42702 246-328, looked up)
chain: WIPDSQTKVFPQDKVILVGSDITFCCVSQEKVLSALIGHTNCPLIHLDGENVAIKIRNISVSASSGTNVVFTTEDNIFGTVIFQKELAELRESTSQMHTASSLEKQIGHPSPPPEKKELRKVAHLTGKSNSRSMPLEWEDTYGIVLLSGVKYKKGGLVINETGLYFVYSKVYFRGQSCNNLPLSHKVYMRNSKYPQDLVMMEGKMMSYCTTGQMWARSSYLGAVFNLTSADHLYVNVSELSLVNFEESQTFFGLYKL
notes: Ig-like (Ig) module of the LIF receptor gp190, amino acids 246 to 328; extracellular domain of human FasL (hFasL), amino acids 108 to 281; source: COS cells, transiently transfected (pED4 vector), supernatant; for SPR in Opti-MEM, concentrated 100 times, dialysed against PBS; copies: 12
B3: cleaved FasL (cFasL), spontaneously cleaved membrane FasL (ligand, human, UniProt P48023 127-281, looked up)
chain: LEKQIGHPSPPPEKKELRKVAHLTGKSNSRSMPLEWEDTYGIVLLSGVKYKKGGLVINETGLYFVYSKVYFRGQSCNNLPLSHKVYMRNSKYPQDLVMMEGKMMSYCTTGQMWARSSYLGAVFNLTSADHLYVNVSELSLVNFEESQTFFGLYKL
notes: human FasL, soluble product of the metalloprotease cleavage between amino acids 126 and 127; the C-terminal end 281 is the one printed for the extracellular domain; Homotrimer by gel filtration; also called sFasL; metalloprotease-cleaved FasL; source: COS cells transfected with wild-type FasL, supernatant (spontaneously cleaved by a metalloprotease); for SPR in serum-free medium, concentrated 100 …
B4: D1IgD2FasL (D1IgD2 modules of gp190 fused to the extracellular domain of hFasL) (ligand, UniProt P42702 49-542, looked up)
chain: APHDLKCVTNNLQVWNCSWKAPSGTGRGTDYEVCIENRSRSCYQLEKTSIKIPALSHGDYEITINSLHDFGSSTSKFTLNEQNVSLIPDTPEILNLSADFSTSTLYLKWNDRGSVFPHRSNVIWEIKVLRKESMELVKLVTHNTTLNGKDTLHHWSWASDMPLECAIHFVEIRCYIDNLHFSGLEEWSDWSPVKNISWIPDSQTKVFPQDKVILVGSDITFCCVSQEKVLSALIGHTNCPLIHLDGENVAIKIRNISVSASSGTNVVFTTEDNIFGTVIFAGYPPDTPQQLNCETHDLKEIICSWNPGRVTALVGPRATSYTLVESFSGKYVRLKRAEAPTNESYQLLFQMLPNQEIYNFTLNAHNPLGRSQSTILVNITEKVYPHTPTSFKVKDINSTAVKLSWHLPGNFAKINFLCEIEIKKSNSVQEQRNVTIKGVENSSYLVALDKLNPYTLYTFRIRCSTETFWKWSKWSNKKQHLTTEASPSKGPDTWQKELAELRESTSQMHTASSLEKQIGHPSPPPEKKELRKVAHLTGKSNSRSMPLEWEDTYGIVLLSGVKYKKGGLVINETGLYFVYSKVYFRGQSCNNLPLSHKVYMRNSKYPQDLVMMEGKMMSYCTTGQMWARSSYLGAVFNLTSADHLYVNVSELSLVNFEESQTFFGLYKL
notes: extracellular domain of human FasL (hFasL), amino acids 108 to 281; source: COS cells, transiently transfected (pED4 vector), supernatant; for SPR in Opti-MEM, concentrated 100 times, dialysed against PBS
B5: D2FasL (D2 module of gp190 fused to the extracellular domain of hFasL) (ligand, UniProt P42702 329-542, looked up)
chain: AGYPPDTPQQLNCETHDLKEIICSWNPGRVTALVGPRATSYTLVESFSGKYVRLKRAEAPTNESYQLLFQMLPNQEIYNFTLNAHNPLGRSQSTILVNITEKVYPHTPTSFKVKDINSTAVKLSWHLPGNFAKINFLCEIEIKKSNSVQEQRNVTIKGVENSSYLVALDKLNPYTLYTFRIRCSTETFWKWSKWSNKKQHLTTEASPSKGPDTWQKELAELRESTSQMHTASSLEKQIGHPSPPPEKKELRKVAHLTGKSNSRSMPLEWEDTYGIVLLSGVKYKKGGLVINETGLYFVYSKVYFRGQSCNNLPLSHKVYMRNSKYPQDLVMMEGKMMSYCTTGQMWARSSYLGAVFNLTSADHLYVNVSELSLVNFEESQTFFGLYKL
notes: as for B4

Columns and labels:
[1] = target: B3; assay: SPR; BIAcore 3000; Fas-Fc covalently coupled to a CM5 flow cell (2,000 RU); FasL constructs as concentrated, dialysed COS supernatants flowed over (0.2-100 nM IgFasL, 0.2-44 nM cFasL, 0.2-37.5 nM D2FasL, 0.25-8 nM D1IgD2FasL) in Hepes-buffered saline, 30 ul/min; 5 min association, 11 min dissociation; BIAeval 4.1; conditions: one partner purified
[2] = target: the molecule itself; assay: SEC; gel filtration on Sephacryl S-200-HR and S-300-HR columns; concentrated COS supernatants, eluted in PBS at 0.3 ml/min; FasL in the fractions found by ELISA; size of the oligomer of the FasL construct
Recombinant Fas-Fc = target: B1; assay: SPR; BIAcore 3000; Fas-Fc covalently coupled to a CM5 flow cell (2,000 RU); FasL constructs as concentrated, dialysed COS supernatants flowed over (0.2-100 nM IgFasL, 0.2-44 nM cFasL, 0.2-37.5 nM D2FasL, 0.25-8 nM D1IgD2FasL) in Hepes-buffered saline, 30 ul/min; 5 min association, 11 min dissociation; BIAeval 4.1; conditions: one partner purified

| Kd [1] [nM] | koff [1] [s⁻¹] | kon [1] [M⁻¹ s⁻¹] | Kd (Recombinant Fas-Fc) [nM] | koff (Recombinant Fas-Fc) [s⁻¹] | kon (Recombinant Fas-Fc) [M⁻¹ s⁻¹] | Binder | stoichiometry N [2] |
| --- | --- | --- | --- | --- | --- | --- | --- |
| 69.4 | 0.0059 | 84000 | – | – | – | B1 | – |
| – | – | – | 11.6 | 0.00041 | 25000 | B2 | 12 and 6 |
| – | – | – | – | – | – | B3 | 3 |
| – | – | – | 25.6 | 0.0033 | 130000 | B4 | 6 |
| – | – | – | 38.5 | 0.006 | 160000 | B5 | 6 |
